Data taken from patent US20240034757A1 (OXFORD UNIVERSITY INNOVATION, published 2024).

T1: CCL5_HUMAN (human, UniProt P13501 24-91)
T1 sequence: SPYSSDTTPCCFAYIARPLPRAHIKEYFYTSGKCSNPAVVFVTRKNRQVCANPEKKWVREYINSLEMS

T2: CCL8_HUMAN (human, UniProt P80075 24-99)
T2 sequence (looked up): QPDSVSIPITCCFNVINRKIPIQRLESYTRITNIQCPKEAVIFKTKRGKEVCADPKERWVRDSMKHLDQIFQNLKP

T3: CXCL1_HUMAN (human, UniProt P09341 35-107)
T3 sequence: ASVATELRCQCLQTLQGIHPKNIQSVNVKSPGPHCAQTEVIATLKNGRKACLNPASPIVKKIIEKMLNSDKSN

T4: CXCL8_HUMAN (human, UniProt P10145 28-99)
T4 sequence: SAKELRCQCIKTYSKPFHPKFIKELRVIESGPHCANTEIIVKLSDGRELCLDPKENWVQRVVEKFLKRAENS

T5: CXCL10_HUMAN (human, UniProt P02778 22-98)
T5 sequence: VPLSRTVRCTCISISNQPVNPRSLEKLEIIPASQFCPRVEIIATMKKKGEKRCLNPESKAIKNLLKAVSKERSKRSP

T6: CXCL9_HUMAN (human, UniProt Q07325 23-125)
T6 sequence: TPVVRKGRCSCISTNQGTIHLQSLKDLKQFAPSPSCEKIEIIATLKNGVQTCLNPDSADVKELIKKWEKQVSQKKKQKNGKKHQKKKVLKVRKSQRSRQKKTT

T7: CXCL13_HUMAN (human, UniProt O43927 23-109)
T7 sequence: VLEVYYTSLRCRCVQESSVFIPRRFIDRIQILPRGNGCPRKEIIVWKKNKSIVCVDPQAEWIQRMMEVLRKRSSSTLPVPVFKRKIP

T8: CXCL14_HUMAN (human, UniProt O95715 35-111)
T8 sequence: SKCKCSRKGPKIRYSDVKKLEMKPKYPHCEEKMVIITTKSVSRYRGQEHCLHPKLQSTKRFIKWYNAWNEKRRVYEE

T9: mouse CXCL10 (mouse, UniProt P17515 22-98)
T9 sequence: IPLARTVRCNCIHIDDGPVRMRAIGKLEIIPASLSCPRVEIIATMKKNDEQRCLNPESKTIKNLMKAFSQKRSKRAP

T10: mouse CXCL1 (mouse, UniProt P12850 25-96)
T10 sequence: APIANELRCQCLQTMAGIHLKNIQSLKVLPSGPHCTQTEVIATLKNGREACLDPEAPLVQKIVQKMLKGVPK

T11: mouse CXCL2 (mouse, UniProt P10889 28-100)
T11 sequence: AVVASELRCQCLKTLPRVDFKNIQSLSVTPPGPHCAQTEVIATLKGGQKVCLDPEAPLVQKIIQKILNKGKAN

T12: CXCL7_HUMAN (human, UniProt P02775 59-128)
T12 sequence: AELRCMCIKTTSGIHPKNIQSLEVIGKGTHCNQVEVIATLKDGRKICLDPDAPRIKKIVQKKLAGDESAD


Legend:
CCL5_HUMAN = target: T1, CCL5_HUMAN; assay: BLI, evasin immobilised
CCL8_HUMAN [1] = target: T2, CCL8_HUMAN; assay: BLI, evasin immobilised
CXCL1_HUMAN = target: T3, CXCL1_HUMAN; assay: BLI, evasin immobilised
CXCL8_HUMAN [2] = target: T4, CXCL8_HUMAN; assay: BLI, evasin immobilised
CXCL10_HUMAN [3] = target: T5, CXCL10_HUMAN; assay: BLI, evasin immobilised
CCL2_HUMAN = CCL2_HUMAN (human, UniProt P13500 24-99); assay: BLI, evasin immobilised
CCL8_HUMAN [4] = target: T2, CCL8_HUMAN; assay: BLI
CXCL9_HUMAN = target: T6, CXCL9_HUMAN; assay: BLI
CXCL12_HUMAN = CXCL12_HUMAN (human, UniProt P48061 22-89); assay: BLI
CXCL13_HUMAN = target: T7, CXCL13_HUMAN; assay: BLI
CXCL14_HUMAN = target: T8, CXCL14_HUMAN; assay: BLI
mouse CXCL10 = target: T9, mouse CXCL10; assay: cell-based or functional assay
mouse CXCL1 = target: T10, mouse CXCL1; assay: cell-based or functional assay
mouse CXCL2 = target: T11, mouse CXCL2; assay: cell-based or functional assay
CXCL8_HUMAN [5] = target: T4, CXCL8_HUMAN; assay: BLI [Cont.]
CXCL7_HUMAN = target: T12, CXCL7_HUMAN; assay: yeast surface display FACS re-test; note: test concentration or dose not given here
CXCL10_HUMAN [6] = target: T5, CXCL10_HUMAN; assay: yeast surface display FACS re-test; note: test concentration or dose not given here
CCL8_HUMAN [7] = target: T2, CCL8_HUMAN; assay: cell-based or functional assay

CCL2_HUMAN, sequence (P13500 24-99 limits assumed): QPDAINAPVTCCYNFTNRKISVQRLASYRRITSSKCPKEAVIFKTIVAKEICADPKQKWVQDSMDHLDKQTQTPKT
CXCL12_HUMAN, sequence (P48061 22-89 limits assumed): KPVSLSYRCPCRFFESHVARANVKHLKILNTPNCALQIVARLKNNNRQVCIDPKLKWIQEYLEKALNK

Binder | Kd (CCL5_HUMAN) | Kd (CCL8_HUMAN [1]) | Kd (CXCL1_HUMAN) | Kd (CXCL8_HUMAN [2]) | Kd (CXCL10_HUMAN [3]) | Kd (CCL2_HUMAN) | binding result (CXCL12_HUMAN) | binding result (CXCL13_HUMAN) | binding result (CXCL14_HUMAN) | binding result (CXCL8_HUMAN [5]) | % cells over threshold fluorescence (CXCL7_HUMAN) | % cells over threshold fluorescence (CXCL10_HUMAN [6]) | other results
P1820 (P1142:G4S:P1156:G4S:P467) (designed binder) KPQILQRTDHSTDSDWDPQMCPETCNPSKNISCSSECLCVTLGGGDETGTCFNMSGVDWLGHAQASDGHNDGGGGGSADDDNELFTVQYCGMNCTKDEGGTWTGCTGKKEGCKCYHESGKNYGLCLSTEYTDFSQYGNPSDSEIEAAKPKRSDTLSHGGGGSAEKSLDSDSSGEDYELWTQGCPFLVAENRTGFGTTVSCQHNCNGAIEKVPEGEPCYTIGEDGLGRMKLNLPYNCSLGECSGGVCVPNGRSDVCFKRTWEENNKAMA | 0.41 nM | 18.2 nM | 1.12 nM | 1.11 nM | 1.01 nM | 2.86 nM |  |  |  |  |  |  | 
Evasin-1 peptide variant K92E encoded by EZ406190.1 (other, also called Evasin-1 (EZ406190.1)) EDDEDYGDLGGCPFLVAENKTGYPTIVACKQDCNGTTETAPNGTRCFSIGDEGLRRMTANLPYDCPLGQCSNGDCIPKETYEVCYRRNWRDEKN |  |  |  |  |  |  |  |  |  |  |  |  | binding result (CCL8_HUMAN [4]): no binding (tested: 300 nM)
P1142_AMBCA (other) KPQILQRTDHSTDSDWDPQMCPETCNPSKNISCSSECLCVTLGGGDETGTCFNMSGVDWLGHAQASDGHNDG |  |  |  |  |  |  | no binding (tested: 300 nM) | no binding (tested: 300 nM) | no binding (tested: 300 nM) | no binding (tested: 300 nM) | 71% | 80% | binding result (CXCL9_HUMAN): no binding (tested: 300 nM); IC50, activated mouse T cell migration (mouse CXCL10): 3.37 nM; IC50, mouse bone marrow granulocyte cell migration (mouse CXCL1): 2.15 nM; IC50, mouse bone marrow granulocyte cell migration (mouse CXCL2): 0.66 nM
P1821 (P1142:G4S:P1156:G4S:P991) (designed binder) KPQILQRTDHSTDSDWDPQMCPETCNPSKNISCSSECLCVTLGGGDETGTCFNMSGVDWLGHAQASDGHNDGGGGGSADDDNELFTVQYCGMNCTKDEGGTWTGCTGKKEGCKCYHESGKNYGLCLSTEYTDFSQYGNPSDSEIEAAKPKRSDTLSHGGGGSENGEGTTQPDYDNSTDYYNYEDFKCTCPAPHLNNTNGTVMKPIGCYYTCNVTRCTAPDTYPCYNLTEHQAKNLTTSPTTLCAVGNCDHGICVPNGTKELCFKAPNLEE | 0.001 nM | 14.1 nM | 1.86 nM | 1.55 nM | 1.44 nM | 11.8 nM |  |  |  |  |  |  | 
P672:EVA1 (P672_RHIPU (1-44): EVA1_RHISA (29-94)) (designed binder) VCEVSEQEGVGEDNATEDEDYEDFFKPVTCYFANSTVGPLRPPNCKQDCNGTTETAPNGTRCFSIGDEGLRRMTANLPYDCPLGQCSNGDCIPKETYEVCYRRNWRDEKN |  |  |  |  |  |  |  |  |  |  |  |  | Kd (CCL8_HUMAN [4]): 223 nM; IC50, CCL8 induced THP-1 monocyte cell migration (CCL8_HUMAN [7]): 48 nM
P1126_AMBCA (other) KPQILQRTDKSTDSEWDPQTCPETCIPSKNITCSDGCVCVKLGEEEEGTCFNMTGVDWLGSPSDD |  |  |  |  |  |  | no binding (tested: 300 nM) | no binding (tested: 300 nM) | no binding (tested: 300 nM) | no binding (tested: 300 nM) | 74% | 66% | 
